Assays:
[1] = target: T1, holo NsrR ([4Fe-4S] in each subunit) (Streptomyces coelicolor, UniProt Q9L132 1-148); assay: native MS; about equal free and DNA-bound holo NsrR before NO; SPR: 10 mM HEPES, 150 mM NaCl, 0.05% polysorbate 20, pH 7.4, 25 C, anaerobic; native MS: 100 mM ammonium acetate pH 8 (30 C for nitrosylation); conditions: protein: recombinant; tags: none; chain copies: 2; blunt
T1 sequence: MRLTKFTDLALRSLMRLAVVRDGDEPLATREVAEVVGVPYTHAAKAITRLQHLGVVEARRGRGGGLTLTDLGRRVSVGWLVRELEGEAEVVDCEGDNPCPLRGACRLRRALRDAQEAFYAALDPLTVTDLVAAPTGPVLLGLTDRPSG

[2] = target: T1, holo NsrR ([4Fe-4S] in each subunit); assay: native MS; 100 mM ammonium acetate pH 8; relative affinity; SPR: 10 mM HEPES, 150 mM NaCl, 0.05% polysorbate 20, pH 7.4, 25 C, anaerobic; native MS: 100 mM ammonium acetate pH 8 (30 C for nitrosylation); conditions: protein: recombinant; tags: none; chain copies: 2; blunt
[3] = target: the molecule itself; assay: native MS; as-isolated and reconstituted NsrR, 8 μM [4Fe–4S], ionised from 100 mM ammonium acetate pH 8.0, positive-mode ESI, no DNA

B1: hmpA2 23 bp native MS (dsDNA)
DNA 1: AACAAGCATCTGAGATCCCAGTT
DNA 2: AACTGGGATCTCAGATGCTTGTT
binding result [1]: binds

B2: hmpA1 22 bp native MS (dsDNA)
DNA 1: AACACGAATATCATCTACCAAT
DNA 2: ATTGGTAGATGATATTCGTGTT
Kd [2]: 3000 ± 100 nM

B3: NsrR from Streptomyces coelicolor, non-tagged (natural protein)
chain: T1 sequence
notes: NsrR, Rrf2-family transcriptional regulator of Streptomyces coelicolor A3, locus SCO7427; non-tagged construct from pNsrR; Homodimer; Each subunit can carry a [4Fe–4S] cluster: two clusters per dimer is holo, one is hemi-apo, none is apo; All three forms were observed as dimers by native MS (32 608, 32 257 and 31 907 Da); also called non-tagged NsrR; [4Fe–4S]; NsrR; source: E. coli BL21 λDE3 …
stoichiometry N [3]: 2
